The values that follow come from US12559749B2, “Methods of rescuing stop codons via genetic reassignment with ACE-tRNA” (UNIVERSITY OF IOWA RESEARCH FOUNDATION, priority 2017, dated 2026).

The test system of one series is CFTR W1282X. Kind of series: CFTR W1282X rescue, western blot of B and C bands, HEK cells. It is filed as cell-based, human. The note with it: co-expression with CFTR W1282X cDNA in HEK cells. As for the experimental part:
To assess is these novel tRNA could rescue CFTR channels harboring nonsense codons, they were co-expressed in mammalian HEK cells with a CFTR W1282X cDNA plasmid. The cellular preparations were analyzed by standard biochemical approaches via Western blot assessment of CFTR protein. […] Specifically, the “B” and “C” bands represent the full-length and fully mature, post-translationally proceeded CFTR protein at the cell surface, respectively. […] FIG. 9.
For expression in mammalian cells, the cDNA for the coding region and 200 base-pair of the 3′ untranslated region (UTR) of human CFTR was ligated into pcDNA3.1(+) (Promega, USA) using the KpnI and XbaI restriction enzymes. The G542tga and W1282tga mutations were introduced using QuickChange XL II (Stratagene, USA). For expression in Xenopus laevis oocytes, the cDNA for the coding region and 140 base-pair of the 5′ and 244 base-pair 3′ UTR of human CFTR was ligated into pGEM-HE (Promega, USA). Bothe the G542tga and W1282tga mutations were introduced using QuickChange XL II. The cDNA encoding the E. coli histidinol dehydrogenase was codon optimized for Mus musculus and synthesized (BioBasic Inc, Canada) with a c-terminal 8×His-Strep-tag (“8×His” disclosed as SEQ ID NO: 647) for protein purification from mammalian cells. The synthesized cDNA was ligated into pcDNA3.1(+) using EcoRI and XhoI restriction sites. […]
On the technique in general: Immunoblotting shows a protein as a band on a membrane.

Another series has as its system NanoLuc-TGA, TAA or TAG. It is filed as cell-based, human. The conditions noted are these: transiently transfected HEK293 cells; listed as Glychr19.t2.

B1: Glychr19.trna2: top performing glycine ACE-tRNA UGA, SEQ ID NO: 53 (nucleic acid)
chain: GCGUUGGUGGUAUAGUGGUUAGCAUAGCUGCCUUCAAAGCAGUUGACCCGGGUUCGAUUCCCGGCCAACGCA
modifications: chemistry not given here
Regarding B1, in the series on CFTR W1282X, the “rescue of CFTR protein, B and C bands” value was “robust populations of ‘B’ and ‘C’ CFTR immunopositive”. For the same molecule, in the series with NanoLuc-TGA, TAA or TAG, the “stop codon selectivity (UGA over UAA and UAG)” value was “selectively suppresses the UGA stop codon”.
